Reference: paper PMC7181197
Where two headings read alike, the source gives them in different places.

Columns and labels:
GFP-G3BP1(ΔRG) [1] = assay: SEC
GFP-G3BP1(ΔRG) [2] = biological target: GFP-G3BP1(ΔRG)

Substance: GFP-G3BP1(ΔRG) (domain or fragment)
- stoichiometry N (GFP-G3BP1(ΔRG) [1]): 2
- stoichiometry N (GFP-G3BP1(ΔRG) [2]): 2
